Consider three molecules from US20240018240A1 (Hoffmann-La Roche, published 2024).

Assay [1] concerns the target T1, Human CD3ε stalk-Fc(knob)-Avi/CD3δ stalk-Fc(hole) (human).
T1 construct: Heterodimer of CD3 delta and CD3 epsilon ectodomains fused to a human Fc domain with knob-into-hole modifications and C-terminal Avi-tag; also called human CD3ε/δ; CD3ε/δ
As to the kind of experiment: SPR RAC assay (Biacore T200, 25°C); TCB captured by anti-PG antibody on CM3 chip, 200 nM human CD3ε/δ injected after 100 nM human PLAP. The method, then:
(§1) SPR experiments were performed on a Biacore T200 instrument (GE Healthcare). For the immobilization. HBS-N pH 7.4 was used as a running buffer (Cytiva #BR100670). Anti-PG antibody (see Example 3) was immobilized by amine coupling (using amine coupling kit, Cytiva #BR100050) at a density of >6000 RU on a CM3 Chip (Cytiva #29104990). The anti-PG antibody stock solution was diluted to a concentration of 25 μg/mL in a 10 mM sodium acetate buffer of pH 5.0 (Cytiva #BR100351). After the immobilization the analysis was performed at 25° C., and using PBS-P+ (Cytiva #28995084) as a running and a dilution buffer. The 5 nM solutions of TCB molecule samples in PBS-P+ were captured for 30 sec at a flow rate 5 μl/min. Then a 100 nM solution of human PLAP was injected for 90 sec association time and 30 sec dissociation time at a flow rate of 8 μl/min. Thereafter, a 200 nM solution of human CD3ε/δ (see Example 3, SEQ ID NOs 24 and 25) was injected for 90 sec association time and 30 sec dissociation time at a flow rate of 8 μl/min. The regeneration of the surface followed by two 60 sec regeneration steps with a 10 mM NaOH solution. The data were analyzed with the Biacore T200 Evaluation and Excel software. For the calculation of relative active concentration (RAC) the binding report point (BRP) was used. To calculate the RAC, the target and antibody concentrations were referenced to the unstressed sample (−80° C.) as 100% comparison. For the normalization of the protein concentration, reference was made to anti-PG antibody capturing (RAC values).

Assay [2] has as its target T2, Human PLAP (soluble, as injected in SPR) (human, UniProt P05187 23-506).
T2 construct: also called PLAP target
The assay is described as follows: SPR single cycle kinetics (Biacore T200, 25°C); TCB captured by anti-PG antibody on CM3 chip, human PLAP as analyte. As to the method:
(§2) The binding kinetics of the PLAP TCB molecules generated in Example 17 were characterized by the single cycle kinetic (SSK) assay. For this assay, again the SPR Biacore T200 was used. The immobilization was performed at 25° C. with HBS-N pH 7.4 as a running buffer (Cytiva #BR100670). The anti-PG antibody (see Example 3) was immobilized by amine coupling (using amine coupling kit, Cytiva #BR100050) at a density of >5000 RU on a CM3 Chip (Cytiva #29104990). The anti-PG antibody stock solution was diluted to a concentration of 25 μg/mL in a 10 mM sodium acetate buffer of pH 5.0 (Cytiva #BR100351). After the immobilization the analysis was performed at 25° C., and PBS-P+(Cytiva #28995084) was used as a running and a dilution buffer. The 3 nM solutions of TCB molecule samples in PBS-P+ were captured with anti-PG antibody on a CM3 sensor chip.
(§3) The derived kinetic rate constants and corresponding affinity values (equilibrium dissociation constant KD) are summarized in Table 26 for the CD3 binder and in Table 27 for the PLAP binder. The data were analyzed with the Biacore T200 Evaluation and Excel software.
For orientation: SPR reads the build-up and loss of mass on a sensor chip optically.

Assay [3] has as its target T2, Human PLAP (soluble, as injected in SPR). As to the kind of experiment: SPR RAC assay (Biacore T200, 25°C); TCB captured by anti-PG antibody on CM3 chip, 100 nM human PLAP injected. The method, then:
as §1

The target in assay [4] is T1, Human CD3ε stalk-Fc(knob)-Avi/CD3δ …. The assay is described as follows: SPR single cycle kinetics (Biacore T200, 25°C); TCB captured by anti-PG antibody on CM3 chip, human CD3ε/δ as analyte. The method, then: as §2, §3

T2 sequence (P05187 23-506 limits assumed): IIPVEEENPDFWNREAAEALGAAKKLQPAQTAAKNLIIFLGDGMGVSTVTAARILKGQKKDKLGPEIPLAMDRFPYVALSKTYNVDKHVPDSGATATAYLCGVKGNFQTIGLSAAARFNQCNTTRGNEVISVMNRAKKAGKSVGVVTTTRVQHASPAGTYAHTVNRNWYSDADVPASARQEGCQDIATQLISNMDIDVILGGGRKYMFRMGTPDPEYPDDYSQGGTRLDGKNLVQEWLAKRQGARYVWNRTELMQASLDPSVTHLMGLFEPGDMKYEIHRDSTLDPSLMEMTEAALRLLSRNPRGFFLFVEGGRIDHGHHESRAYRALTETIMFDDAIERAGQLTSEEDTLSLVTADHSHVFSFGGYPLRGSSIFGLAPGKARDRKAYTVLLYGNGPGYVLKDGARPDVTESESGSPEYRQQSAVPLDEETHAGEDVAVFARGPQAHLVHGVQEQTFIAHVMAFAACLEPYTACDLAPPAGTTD

B1: PLAP H2 CD3orig TCB (bispecific antibody, human IgG1, kappa, L234A L235A)
heavy 1: not shown
heavy 2: QVQLQESGPGLVKPSETLSLTCTVSGFSLTSYGVSWIRQPAGKGLEWIGVIWEDGSTNYHSALISRVTMSVDTSKNQFSLKLSSVTAADTAVYYCARPHYGSSYVGAMEYWGAGTTVTVSSASTKGPSVFPLAPSSKSTSGGTAALGCLVEDYFPEPVTVSWNSGALTSGVHTFPAVLQSSGLYSLSSVVTVPSSSLGTQTYICNVNHKPSNTKVDEKVEPKSCDKTHTCPPCPAPEAAGGPSVFLFPPKPKDTLMISRTPEVTCVVVDVSHEDPEVKFNWYVDGVEVHNAKTKPREEQYNSTYRVVSVLTVLHQDWLNGKEYKCKVSNKALGAPIEKTISKAKGQPREPQVCTLPPSRDELTKNQVSLSCAVKGFYPSDIAVEWESNGQPENNYKTTPPVLDSDGSFFLVSKLTVDKSRWQQGNVFSCSVMHEALHNHYTQKSLSLSP
light 1: DIQMTQSPSSLSASVGDRVTITCRASENIYSYVAWYQQKPGKAPKLLIYNAKSLASGVPSRFSGSGSGTDFTLTISSLQPEDFATYYCQHHYVSPWTFGGGTKLEIKRTVAAPSVFIFPPSDRKLKSGTASVVCLLNNFYPREAKVQWKVDNALQSGNSQESVTEQDSKDSTYSLSSTLTLSKADYEKHKVYACEVTHQGLSSPVTKSFNRGEC
light 2: EVQLLESGGGLVQPGGSLRLSCAASGFTFSTYAMNWVRQAPGKGLEWVSRIRSKYNNYATYYADSVKGRFTISRDDSKNTLYLQMNSLRAEDTAVYYCVRHGNFGNSYVSWFAYWGQGTLVTVSSASVAAPSVFIFPPSDEQLKSGTASVVCLLNNFYPREAKVQWKVDNALQSGNSQESVTEQDSKDSTYSLSSTLTLSKADYEKHKVYACEVTHQGLSSPVTKSFNRGEC
As to B1, in assay [1], the “RAC [%] CD3 binding, stress A” value is 96%; the “RAC [%] CD3 binding, stress B” value was 81%; the “RAC [%] CD3 binding, unstressed” value worked out at 100%. In assay [2], this molecule returned a dissociation constant Kd of 0.0181 nM, a koff of 4.45e-05 s⁻¹ and an on-rate constant (kon) of 2.46e+06 M⁻¹ s⁻¹. In addition, in assay [3], the “RAC [%] PLAP binding, stress A” value is 100%; the “RAC [%] PLAP binding, stress B” value was found to be 102%; the “RAC [%] PLAP binding, unstressed” value was found to be 100%. In assay [4], this molecule displayed a dissociation constant Kd of 6.3 nM, a koff of 0.0017 s⁻¹ and an association rate constant (kon) of 269000 M⁻¹ s⁻¹.

B2: PLAP H3 CD3orig TCB (bispecific antibody, human IgG1, kappa, L234A L235A)
heavy 1: not shown
heavy 2: QVQLQESGPGLVKPSETLSLTCTVSGFSLTSYGVSWIRQPPGKGLEWIGVIWEDGSTNYNPSLKSRVTISVDTSKNQFSLKLSSVTAADTAVYYCARPHYGSSYVGAMEYWGAGTTVTVSSASTKGPSVFPLAPSSKSTSGGTAALGCLVEDYFPEPVTVSWNSGALTSGVHTFPAVLQSSGLYSLSSVVTVPSSSLGTQTYICNVNHKPSNTKVDEKVEPKSCDKTHTCPPCPAPEAAGGPSVFLFPPKPKDTLMISRTPEVTCVVVDVSHEDPEVKFNWYVDGVEVHNAKTKPREEQYNSTYRVVSVLTVLHQDWLNGKEYKCKVSNKALGAPIEKTISKAKGQPREPQVCTLPPSRDELTKNQVSLSCAVKGFYPSDIAVEWESNGQPENNYKTTPPVLDSDGSFFLVSKLTVDKSRWQQGNVFSCSVMHEALHNHYTQKSLSLSP
light 1: DIQMTQSPSSLSASVGDRVTITCRASENIYSYVAWYQQKPGKAPKLLIYNAKSLASGVPSRFSGSGSGTDFTLTISSLQPEDFATYYCQHHYVSPWTFGGGTKLEIKRTVAAPSVFIFPPSDRKLKSGTASVVCLLNNFYPREAKVQWKVDNALQSGNSQESVTEQDSKDSTYSLSSTLTLSKADYEKHKVYACEVTHQGLSSPVTKSFNRGEC
light 2: EVQLLESGGGLVQPGGSLRLSCAASGFTFSTYAMNWVRQAPGKGLEWVSRIRSKYNNYATYYADSVKGRFTISRDDSKNTLYLQMNSLRAEDTAVYYCVRHGNFGNSYVSWFAYWGQGTLVTVSSASVAAPSVFIFPPSDEQLKSGTASVVCLLNNFYPREAKVQWKVDNALQSGNSQESVTEQDSKDSTYSLSSTLTLSKADYEKHKVYACEVTHQGLSSPVTKSFNRGEC
For the molecule B2, in assay [1], the “RAC [%] CD3 binding, stress A” value was 97%; the “RAC [%] CD3 binding, stress B” value amounted to 82%; the “RAC [%] CD3 binding, unstressed” value was 100%. In assay [2], this molecule showed a Kd of 0.009 nM, a dissociation rate constant (koff) of 3.87e-05 s⁻¹ and a kon of 4.32e+06 M⁻¹ s⁻¹. In assay [3], the “RAC [%] PLAP binding, stress A” value came to 99%; the “RAC [%] PLAP binding, stress B” value turned out to be 100%; the “RAC [%] PLAP binding, unstressed” value is 100%. Moreover, in assay [4], the dissociation constant Kd came to 6.3 nM, the koff amounted to 0.00167 s⁻¹ and the kon was determined as 267000 M⁻¹ s⁻¹.

B3: PLAP H3 CD3opt TCB (bispecific antibody, human IgG1, kappa, L234A L235A)
heavy 1: not shown
heavy 2: QVQLQESGPGLVKPSETLSLTCTVSGFSLTSYGVSWIRQPPGKGLEWIGVIWEDGSTNYNPSLKSRVTISVDTSKNQFSLKLSSVTAADTAVYYCARPHYGSSYVGAMEYWGAGTTVTVSSASTKGPSVFPLAPSSKSTSGGTAALGCLVEDYFPEPVTVSWNSGALTSGVHTFPAVLQSSGLYSLSSVVTVPSSSLGTQTYICNVNHKPSNTKVDEKVEPKSCDKTHTCPPCPAPEAAGGPSVFLFPPKPKDTLMISRTPEVTCVVVDVSHEDPEVKFNWYVDGVEVHNAKTKPREEQYNSTYRVVSVLTVLHQDWLNGKEYKCKVSNKALGAPIEKTISKAKGQPREPQVCTLPPSRDELTKNQVSLSCAVKGFYPSDIAVEWESNGQPENNYKTTPPVLDSDGSFFLVSKLTVDKSRWQQGNVFSCSVMHEALHNHYTQKSLSLSP
light 1: DIQMTQSPSSLSASVGDRVTITCRASENIYSYVAWYQQKPGKAPKLLIYNAKSLASGVPSRFSGSGSGTDFTLTISSLQPEDFATYYCQHHYVSPWTFGGGTKLEIKRTVAAPSVFIFPPSDRKLKSGTASVVCLLNNFYPREAKVQWKVDNALQSGNSQESVTEQDSKDSTYSLSSTLTLSKADYEKHKVYACEVTHQGLSSPVTKSFNRGEC
light 2: EVQLLESGGGLVQPGGSLRLSCAASGFQFSSYAMNWVRQAPGKGLEWVSRIRSKYNNYATYYADSVKGRFTISRDDSKNTLYLQMNSLRAEDTAVYYCVRHTTFPSSYVSYYGYWGQGTLVTVSSASVAAPSVFIFPPSDEQLKSGTASVVCLLNNFYPREAKVQWKVDNALQSGNSQESVTEQDSKDSTYSLSSTLTLSKADYEKHKVYACEVTHQGLSSPVTKSFNRGEC
notes: 2+1 IgG CrossFab, inverted
Regarding B3, in assay [1], the “RAC [%] CD3 binding, stress A” value is 98%; the “RAC [%] CD3 binding, stress B” value was 95%; the “RAC [%] CD3 binding, unstressed” value amounted to 100%. In assay [2], this molecule came in with a Kd of 0.0097 nM, a koff of 3.99e-05 s⁻¹ and a kon of 4.12e+06 M⁻¹ s⁻¹. In assay [3], the “RAC [%] PLAP binding, stress A” value worked out at 100%; the “RAC [%] PLAP binding, stress B” value worked out at 101%; the “RAC [%] PLAP binding, unstressed” value stood at 100%. In assay [4], the Kd was 2.8 nM, the koff worked out at 0.0136 s⁻¹ and the kon was determined as 4.79e+06 M⁻¹ s⁻¹.

Usually Kd stands for the constant that tells how readily two partners part at equilibrium. Higher therefore signals a looser complex. The koff is a measure of how fast the partners let go of each other. Lower therefore signals slow dissociation. By kon is commonly meant the second-order rate constant of association. A low value points to slow association.
